Results: patent US20130053549A1 (UCB, published 2013)

B1: A26Fab 645Fv 5G4S 1189Fv (other)
heavy: EVQLVESGGGLVQPGGSLRLSCAASGFTFTNYGIHWIRQAPGKGLEWVASISPSGGLTYYRDSVKGRFTISRDDAKNSPYLQMNSLRAEDTAVYYCATGGEGIFDYWGQGTLVTVSSASTKGPSVFPLAPSSKSTSGGTAALGCLVKDYFPEPVTVSWNSGALTSGVHTFPAVLQSSGLYSLSSVVTVPSSSLGTQTYICNVNHKPSNTKVDKKVEPKSCSGGGGSGGGGSGGGGSEVQLLESGGGLVQPGGSLRLSCAVSGIDLSNYAINWVRQAPGKCLEWIGIIWASGTTFYATWAKGRFTISRDSTTVYLQMNSLRAEDTAVYYCARTVPGYSTAPYFDLWGQGTLVTVSSGGGGSGGGGSGGGGSGGGGSGGGGSEVQLVESGGGLVQPGGSLRLSCAASGFTFNDYDMAWVRQAPGKCLEWVASITPSGGGTYYRDSVKGRFTISRDNAKNSLYLQMNSLRAEDTAVYYCARHGYTLDYFEYWGQGTMVTVSS
light: DIQMTQSPSSLSASVGDRVTITCRATQSIYNALAWYQQKPGKAPKLLIYNANTLHTGVPSRFSASGSGTDSTLTISSLQPEDFATYYCQQYYDYPLTFGGGTKVEIKRTVAAPSVFIFPPSDEQLKSGTASVVCLLNNFYPREAKVQWKVDNALQSGNSQESVTEQDSKDSTYSLSSTLTLSKADYEKHKVYACEVTHQGLSSPVTKSFNRGECSGGGGSGGGGSGGGGSDIVMTQSPSSVSASVGDRVTITCQSSPSVWSNFLSWYQQKPGKAPKLLIYEASKLTSGVPSRFKGSGSGTDFTLTISSLQPEDFATYYCGGGYSSISDTTFGCGTKVEIKGGGGSGGGGSGGGGSGGGGSGGGGSDIQMTQSPSSLSASVGDRVTITCLASEGISNDLAWYQQKPGKAPKLLIYDATRLQDGVPSRFSGSGSGTDFTLTISSLQPEDFATYYCQQSYKYPWTFGCGTKLEIK
notes: Trispecific Fab-Fv-Fv (OX40, HSA, IL-6); second linker 5xG4S; HEK293 supernatant; also called A26Fab-645Fv-1189Fv; FabFvFv
B2: A26Fab 645Fv 3G4S 1189Fv (other)
heavy: EVQLVESGGGLVQPGGSLRLSCAASGFTFTNYGIHWIRQAPGKGLEWVASISPSGGLTYYRDSVKGRFTISRDDAKNSPYLQMNSLRAEDTAVYYCATGGEGIFDYWGQGTLVTVSSASTKGPSVFPLAPSSKSTSGGTAALGCLVKDYFPEPVTVSWNSGALTSGVHTFPAVLQSSGLYSLSSVVTVPSSSLGTQTYICNVNHKPSNTKVDKKVEPKSCSGGGGSGGGGSGGGGSEVQLLESGGGLVQPGGSLRLSCAVSGIDLSNYAINWVRQAPGKCLEWIGIIWASGTTFYATWAKGRFTISRDSTTVYLQMNSLRAEDTAVYYCARTVPGYSTAPYFDLWGQGTLVTVSSGGGGSGGGGSGGGGSEVQLVESGGGLVQPGGSLRLSCAASGFTFNDYDMAWVRQAPGKCLEWVASITPSGGGTYYRDSVKGRFTISRDNAKNSLYLQMNSLRAEDTAVYYCARHGYTLDYFEYWGQGTMVTVSS
light: DIQMTQSPSSLSASVGDRVTITCRATQSIYNALAWYQQKPGKAPKLLIYNANTLHTGVPSRFSASGSGTDSTLTISSLQPEDFATYYCQQYYDYPLTFGGGTKVEIKRTVAAPSVFIFPPSDEQLKSGTASVVCLLNNFYPREAKVQWKVDNALQSGNSQESVTEQDSKDSTYSLSSTLTLSKADYEKHKVYACEVTHQGLSSPVTKSFNRGECSGGGGSGGGGSGGGGSDIVMTQSPSSVSASVGDRVTITCQSSPSVWSNFLSWYQQKPGKAPKLLIYEASKLTSGVPSRFKGSGSGTDFTLTISSLQPEDFATYYCGGGYSSISDTTFGCGTKVEIKGGGGSGGGGSGGGGSDIQMTQSPSSLSASVGDRVTITCLASEGISNDLAWYQQKPGKAPKLLIYDATRLQDGVPSRFSGSGSGTDFTLTISSLQPEDFATYYCQQSYKYPWTFGCGTKLEIK
notes: Trispecific Fab-Fv-Fv (OX40, HSA, IL-6); second linker 3xG4S; HEK293 supernatant; also called A26Fab-645Fv-1189Fv; FabFvFv
B3: A26Fab-(3xG4S)-645dsFv-(3xG4S)-870dsFv (other)
heavy: EVQLVESGGGLVQPGGSLRLSCAASGFTFTNYGIHWIRQAPGKGLEWVASISPSGGLTYYRDSVKGRFTISRDDAKNSPYLQMNSLRAEDTAVYYCATGGEGIFDYWGQGTLVTVSSASTKGPSVFPLAPSSKSTSGGTAALGCLVKDYFPEPVTVSWNSGALTSGVHTFPAVLQSSGLYSLSSVVTVPSSSLGTQTYICNVNHKPSNTKVDKKVEPKSCSGGGGSGGGGSGGGGSEVQLLESGGGLVQPGGSLRLSCAVSGIDLSNYAINWVRQAPGKCLEWIGIIWASGTTFYATWAKGRFTISRDSTTVYLQMNSLRAEDTAVYYCARTVPGYSTAPYFDLWGQGTLVTVSSGGGGSGGGGSGGGGSEVQLVESGGGLVQPGGSLRLSCAASGYVFTDYGMNWVRQAPGKCLEWMGWINTYIGEPIYADSVKGRFTFSLDTSKSTAYLQMNSLRAEDTAVYYCARGYRSYAMDYWGQGTLVTVSS
light: DIQMTQSPSSLSASVGDRVTITCRATQSIYNALAWYQQKPGKAPKLLIYNANTLHTGVPSRFSASGSGTDSTLTISSLQPEDFATYYCQQYYDYPLTFGGGTKVEIKRTVAAPSVFIFPPSDEQLKSGTASVVCLLNNFYPREAKVQWKVDNALQSGNSQESVTEQDSKDSTYSLSSTLTLSKADYEKHKVYACEVTHQGLSSPVTKSFNRGECSGGGGSGGGGSGGGGSDIVMTQSPSSVSASVGDRVTITCQSSPSVWSNFLSWYQQKPGKAPKLLIYEASKLTSGVPSRFKGSGSGTDFTLTISSLQPEDFATYYCGGGYSSISDTTFGCGTKVEIKGGGGSGGGGSGGGGSDIQMTQSPSSLSASVGDRVTITCKASQNVGTNVAWYQQKPGKAPKALIYSASFLYSGVPYRFSGSGSGTDFTLTISSLQPEDFATYYCQQYNIYPLTFGCGTKVEIKR
notes: Trispecific Fab-Fv-Fv (OX40, HSA, TNF); terminal 870 Fv with a disulfide (+DS read as dsFv); HEK293 supernatant; also called A26-645-870+DS; A26Fab-645Fv-652/870Fv
B4: A26Fab 645Fv 4G4S 1189Fv (other)
heavy: EVQLVESGGGLVQPGGSLRLSCAASGFTFTNYGIHWIRQAPGKGLEWVASISPSGGLTYYRDSVKGRFTISRDDAKNSPYLQMNSLRAEDTAVYYCATGGEGIFDYWGQGTLVTVSSASTKGPSVFPLAPSSKSTSGGTAALGCLVKDYFPEPVTVSWNSGALTSGVHTFPAVLQSSGLYSLSSVVTVPSSSLGTQTYICNVNHKPSNTKVDKKVEPKSCSGGGGSGGGGSGGGGSEVQLLESGGGLVQPGGSLRLSCAVSGIDLSNYAINWVRQAPGKCLEWIGIIWASGTTFYATWAKGRFTISRDSTTVYLQMNSLRAEDTAVYYCARTVPGYSTAPYFDLWGQGTLVTVSSGGGGSGGGGSGGGGSGGGGSEVQLVESGGGLVQPGGSLRLSCAASGFTFNDYDMAWVRQAPGKCLEWVASITPSGGGTYYRDSVKGRFTISRDNAKNSLYLQMNSLRAEDTAVYYCARHGYTLDYFEYWGQGTMVTVSS
light: DIQMTQSPSSLSASVGDRVTITCRATQSIYNALAWYQQKPGKAPKLLIYNANTLHTGVPSRFSASGSGTDSTLTISSLQPEDFATYYCQQYYDYPLTFGGGTKVEIKRTVAAPSVFIFPPSDEQLKSGTASVVCLLNNFYPREAKVQWKVDNALQSGNSQESVTEQDSKDSTYSLSSTLTLSKADYEKHKVYACEVTHQGLSSPVTKSFNRGECSGGGGSGGGGSGGGGSDIVMTQSPSSVSASVGDRVTITCQSSPSVWSNFLSWYQQKPGKAPKLLIYEASKLTSGVPSRFKGSGSGTDFTLTISSLQPEDFATYYCGGGYSSISDTTFGCGTKVEIKGGGGSGGGGSGGGGSGGGGSDIQMTQSPSSLSASVGDRVTITCLASEGISNDLAWYQQKPGKAPKLLIYDATRLQDGVPSRFSGSGSGTDFTLTISSLQPEDFATYYCQQSYKYPWTFGCGTKLEIK
notes: Trispecific Fab-Fv-Fv (OX40, HSA, IL-6); second linker 4xG4S; HEK293 supernatant; also called A26Fab-645Fv-1189Fv; FabFvFv
B5: A26Fab 645Fv 2G4S 1189Fv (other)
heavy: EVQLVESGGGLVQPGGSLRLSCAASGFTFTNYGIHWIRQAPGKGLEWVASISPSGGLTYYRDSVKGRFTISRDDAKNSPYLQMNSLRAEDTAVYYCATGGEGIFDYWGQGTLVTVSSASTKGPSVFPLAPSSKSTSGGTAALGCLVKDYFPEPVTVSWNSGALTSGVHTFPAVLQSSGLYSLSSVVTVPSSSLGTQTYICNVNHKPSNTKVDKKVEPKSCSGGGGSGGGGSGGGGSEVQLLESGGGLVQPGGSLRLSCAVSGIDLSNYAINWVRQAPGKCLEWIGIIWASGTTFYATWAKGRFTISRDSTTVYLQMNSLRAEDTAVYYCARTVPGYSTAPYFDLWGQGTLVTVSSGGGGSGGGGSEVQLVESGGGLVQPGGSLRLSCAASGFTFNDYDMAWVRQAPGKCLEWVASITPSGGGTYYRDSVKGRFTISRDNAKNSLYLQMNSLRAEDTAVYYCARHGYTLDYFEYWGQGTMVTVSS
light: DIQMTQSPSSLSASVGDRVTITCRATQSIYNALAWYQQKPGKAPKLLIYNANTLHTGVPSRFSASGSGTDSTLTISSLQPEDFATYYCQQYYDYPLTFGGGTKVEIKRTVAAPSVFIFPPSDEQLKSGTASVVCLLNNFYPREAKVQWKVDNALQSGNSQESVTEQDSKDSTYSLSSTLTLSKADYEKHKVYACEVTHQGLSSPVTKSFNRGECSGGGGSGGGGSGGGGSDIVMTQSPSSVSASVGDRVTITCQSSPSVWSNFLSWYQQKPGKAPKLLIYEASKLTSGVPSRFKGSGSGTDFTLTISSLQPEDFATYYCGGGYSSISDTTFGCGTKVEIKGGGGSGGGGSDIQMTQSPSSLSASVGDRVTITCLASEGISNDLAWYQQKPGKAPKLLIYDATRLQDGVPSRFSGSGSGTDFTLTISSLQPEDFATYYCQQSYKYPWTFGCGTKLEIK
notes: Trispecific Fab-Fv-Fv (OX40, HSA, IL-6); second linker 2xG4S; HEK293 supernatant; also called A26Fab-645Fv-1189Fv; FabFvFv

Experiments:
[1] = target: T1, human serum albumin (human, UniProt P02768 25-609); assay: SPR, Biacore T100; sample captured by anti-human CH1 antibody, HSA as analyte, 1:1 fit
T1 construct: Bought protein; also called HSA
Description: (§1) Covalent immobilisation of the capture antibody was achieved by standard amine coupling chemistry.
(§2) After each cycle, the capture surface was regenerated with 2×1 min injections of 40 mM HCl followed by 30 s of 5 mM NaOH. The flow rates used were 10 μl/min for capture, 30 μl/min for association and dissociation phases, and 10 μl/min for regeneration.
(§3) Kinetic parameters were determined by simultaneous global-fitting of the resulting sensorgrams to a standard 1:1 binding model using Biacore T100 Evaluation Software v2.0.1.

[2] = target: T2, IL-6 (UniProt P05231 30-212, limits assumed); assay: SPR, Biacore T100; sample captured by anti-human CH1 antibody, IL-6 as analyte
Description: as §1, §2
(§4) A blank flow-cell was used for reference subtraction and buffer-blank injections were included to subtract instrument noise and drift.

[3] = target: T2, IL-6; assay: SPR, Biacore T100; sample captured by anti-human CH1 antibody, IL-6 as analyte, 1:1 fit
Description: as §1, §4, §3

[4] = target: T1, human serum albumin; assay: SPR, Biacore T100; sample captured by anti-human CH1 antibody, HSA as analyte
Description: as §1, §2, §4

[5] = target: T1, human serum albumin; assay: SPR, Biacore 3000; construct captured by anti-human CH1 antibody, 50 nM HSA alone
Description: as §1, §2

[6] = target: T3, Ox40/mFc (UniProt P43489 29-214); assay: SPR, Biacore 3000; construct captured by anti-human CH1 antibody, 20 nM Ox40/mFc alone
T3 construct: Bought fusion protein; also called Ox40/mFc (AXXORA 1588)
T3 sequence (looked up): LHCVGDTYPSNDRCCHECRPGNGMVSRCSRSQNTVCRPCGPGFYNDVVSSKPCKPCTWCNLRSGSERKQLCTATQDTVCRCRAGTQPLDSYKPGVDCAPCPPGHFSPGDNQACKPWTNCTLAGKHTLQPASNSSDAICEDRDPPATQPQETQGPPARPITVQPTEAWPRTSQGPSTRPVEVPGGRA
Description: as §1, §2

[7] = target: T4, TNF (human, UniProt P01375 77-233); assay: SPR, Biacore 3000; sample captured by anti-human CH1 antibody, TNF as analyte
T4 construct: also called TNF (Strathmann hTNFa); hTNFa
Description: as §1, §2
Kinetic parameters were determined by simultaneous global-fitting of the resulting sensorgrams to a standard 1:1 binding model using Biacore 3000 Evaluation Software v3.2

| Binder | Kd [1] | koff [1] | kon [1] | Stoichiometry [2] | Kd [3] | koff [3] | kon [3] | Stoichiometry [4] | Response RU [5] | Response RU [6] | Affinity (fold loss against the parent) [7] | Stoichiometry [7] |
| --- | --- | --- | --- | --- | --- | --- | --- | --- | --- | --- | --- | --- |
| B1 | 12.2 nM | 0.000393 s⁻¹ | 32400 M⁻¹ s⁻¹ | 0.69 | 0.48 nM | 0.000768 s⁻¹ | 1.61e+06 M⁻¹ s⁻¹ | 0.39 | – | – | – | – |
| B2 | 11.6 nM | 0.000392 s⁻¹ | 33800 M⁻¹ s⁻¹ | 0.68 | 0.84 nM | 0.000737 s⁻¹ | 874000 M⁻¹ s⁻¹ | 0.39 | – | – | – | – |
| B3 | – | – | – | – | – | – | – | – | 10 RU | 32 RU | 2 fold | 0.42 |
| B4 | 11.7 nM | 0.000396 s⁻¹ | 33900 M⁻¹ s⁻¹ | 0.66 | 0.52 nM | 0.000729 s⁻¹ | 1.41e+06 M⁻¹ s⁻¹ | 0.4 | – | – | – | – |
| B5 | 11.6 nM | 0.000389 s⁻¹ | 33700 M⁻¹ s⁻¹ | 0.47 | 0.78 nM | 0.000747 s⁻¹ | 959000 M⁻¹ s⁻¹ | 0.4 | – | – | – | – |
